Experiment [1] concerns the target FZD5-FZD6 chimeric protein (human). Nature of the experiment: FRET or BRET; NanoBiT/BRET saturation binding on live HEK293A cells (setup 1): eGFP-WNT-3A conditioned medium 16.7 pM to 16.7 nM, 5% FBS, 10 mM HEPES, 240 min at 37 °C, then LgBiT and furimazine for 10 min; one-site specific model (normalised logarithmic fits for pKd). In general terms: Bioluminescence resonance energy transfer reports proximity on the nanometre scale.

Experiment [2] has as its target FZD5-FZD7 chimeric protein (human). Described as above.

Sequence of eGFP-tagged mouse WNT-3A (P27467 19-352): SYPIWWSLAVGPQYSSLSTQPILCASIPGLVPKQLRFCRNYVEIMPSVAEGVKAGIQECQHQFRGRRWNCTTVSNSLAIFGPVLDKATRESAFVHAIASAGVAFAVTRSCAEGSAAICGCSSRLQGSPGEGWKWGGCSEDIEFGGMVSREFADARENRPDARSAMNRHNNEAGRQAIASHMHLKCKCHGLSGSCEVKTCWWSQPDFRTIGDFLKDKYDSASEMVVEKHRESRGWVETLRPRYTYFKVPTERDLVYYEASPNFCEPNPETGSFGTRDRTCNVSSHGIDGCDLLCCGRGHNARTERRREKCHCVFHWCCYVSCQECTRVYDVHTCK

For orientation: Kd means the free concentration of one partner at which half of the binding sites on the other are occupied at equilibrium, for simple one-to-one binding. “eGFP-tagged mouse WNT-3A (from UniProt P27467 19-352) (ligand)”: the Kd in experiment [1] stood at 4.4 nM; in experiment [2], 5 nM.
